Source: patent US20180193477A1

Biological target: CD3 on human CD3+ Jurkat T cells (human) (UniProt P07766)
Assay: cell-based or functional assay

CD3 on human CD3+ Jurkat T cells (human), sequence (P07766 23-207): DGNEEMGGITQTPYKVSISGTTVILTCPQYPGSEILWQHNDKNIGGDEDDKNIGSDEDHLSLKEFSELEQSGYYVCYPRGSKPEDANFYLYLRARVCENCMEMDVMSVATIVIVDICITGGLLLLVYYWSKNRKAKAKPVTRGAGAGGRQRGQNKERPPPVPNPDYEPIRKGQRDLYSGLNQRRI

An EC50 (nM) of internalization of the pHAb conjugate, Jurkat cells (CD19-, CD3+) of 13.2 nM and an internalization of the pHAb conjugate by Jurkat cells of 2 nM were found for “v2171, bivalent anti-CD3 pHAb conjugated mAb (UCHT1) (antibody)” in this work.
